Laboratory results from paper PMC13544220, “Glycemic and bodyweight effects of GIPR coding variation reflect differences in surface expression and intrinsic functional impairment” (Science Advances, 2026).

Tests used:
[1] = test system: wild-type and variant SNAP-GIPR; assay: Single-concentration GIP cAMP response by HTRF in INS-1 cells; type: cell-based, human; conditions: Fig S3E, mean
Experimental: All variants were tested in parallel on each occasion to control for transfection efficiency differences between experiments.

[2] = test system: wild-type and variant SNAP-GIPR in Gipr-/- mouse islets; assay: Glucagon secretion from Gipr-/- mouse islets transduced with GIPR adenoviruses; type: cell-based; conditions: Fig S6C, Gipr-/- mouse islets
Experimental: (§1) Isolated islets used for insulin secretion assays were treated in 1.5-ml microcentrifuge tubes. Eight-ten islets were used per well with two-three technical replicates per condition. […] At the end of the treatment, supernatants containing the secreted insulin or glucagon were collected, centrifuged at 1000g for 5 min, and transferred to fresh tubes. […] The lysates were sonicated 3× for 10 s in a water bath and centrifuged at 10,000g for 10 min, and the supernatants were collected. The samples were stored at −20°C until the insulin or glucagon concentrations were determined using an Insulin Ultra-Sensitive HTRF Assay kit (62IN2PEG, Revvity) or an HTRF Glucagon Detection Kit (62CGLPEG, Revvity) respectively, according to the manufacturer’s instructions. GraphPad Prism 9.0 was used for the generation of the standard curve and sample concentration extrapolation. The total insulin or glucagon content was calculated by adding the secreted insulin to the insulin content of the lysates, and secretion was reported as the percentage release of total. The percent secretion of islets treated with agonist was normalized to that of islets treated with vehicle and reported as a fold change.

[3] = test system: wild-type and variant SNAP-GIPR; assay: Surface SNAP-GIPR expression (SNAP-tag labelling) in AD293 cells; type: cell-based, human; conditions: for AD293 Surface: Fig S3E, mean; for Surface SNAP-GIPR expression: sheet Fig 1C;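 on all read-outs here: scaled to the experimental average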
Method in brief: (§2)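 Surface GIPR is quantified from wide-field images after labelling intact transfected cells with a membrane-impermeant SNAP probe at 500 nM for 10 min at room temperature. Specific signal, corrected for nontransfected cells, is normalized to the experiment-wide average or to wild-type.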

[4] = test system: wild-type and variant SNAP-GIPR in wild-type mouse islets; assay: Insulin secretion from wild-type mouse islets transduced with GIPR adenoviruses; type: cell-based; conditions: Fig 6F
Experimental: as §1, with “The samples were stored at −20°C until the insulin or glucagon concentrations were determined using an Insulin Ultra-Sensitive HTRF Assay kit (62IN2PEG, Revvity) or an HTRF Glucagon Detection Kit (62CGLPEG, Revvity) respectively, according to the manufacturer’s instructions.” left out

[5] = test system: wild-type and variant SNAP-GIPR; assay: Surface SNAP-GIPR expression (SNAP-tag labelling) in INS-1 cells; type: cell-based, human; conditions: Fig 4G; Mean
Method in brief: as §2

[6] = column repeated, paired with cAMP 100 nM

B1: R101H (protein)
chain: RAETGSKGQTAGELYQRWERYRRECQETLAAAEPPSGLACNGSFDMYVCWDYAAPNATARASCPWYLPWHHHVAAGFVLHQCGSDGQWGLWRDHTQCENPEKNEAFLDQRLILERLQVMYTVGYSLSLATLLLALLILSLFRRLHCTRNYIHINLFTSFMLRAAAILSRDRLLPRPGPYLGDQALALWNQALAACRTAQIVTQYCVGANYTWLLVEGVYLHSLLVLVGGSEEGHFRYYLLLGWGAPALFVIPWVIVRYLYENTQCWERNEVKAIWWIIRTPILMTILINFLIFIRILGILLSKLRTRQMRCRDYRLRLARSTLTLVPLLGVHEVVFAPVTEEQARGALRFAKLGFEIFLSSFQGFLVSVLYCFINKEVQSEIRRGWHHCRLRRSLGEEQRQLPERAFRALPSGSGPGEVPTSRGLSSGTLPGPGNEASRELESYC
- INS-1 cAMP (100 nM) [1]: -0.01312
- Glucagon secretion, ratio G0.5 + GIP / G0.5 ([2]; replicate 1): 1.2225
- Glucagon secretion, ratio G0.5 + GIP / G0.5 ([2]; replicate 2): 1.611
- Glucagon secretion, ratio G0.5 + GIP / G0.5 ([2]; replicate 3): 0.9333
- Glucagon secretion, ratio G0.5 + GIP / G0.5 ([2]; replicate 4): 0.8233
- AD293 Surface [3, 6]: 0.3592
- AD293 Surface ([3]; paired with cAMP 100 pM): 0.3592
- Surface SNAP-GIPR expression ([3]; replicate 1): 0.3042
- Surface SNAP-GIPR expression ([3]; replicate 2): 0.5275
- Surface SNAP-GIPR expression ([3]; replicate 3): 0.05814
- Surface SNAP-GIPR expression ([3]; replicate 4): 0.1831
- Surface SNAP-GIPR expression ([3]; replicate 5): 0.7685
- Surface SNAP-GIPR expression ([3]; replicate 6): 0.323
- Surface SNAP-GIPR expression ([3]; replicate 7): 0.4744
- Surface SNAP-GIPR expression ([3]; replicate 8): 0.4381
- Surface SNAP-GIPR expression ([3]; replicate 9): 0.4341
- Surface SNAP-GIPR expression ([3]; replicate 10): 0.6442
- Surface SNAP-GIPR expression ([3]; replicate 11): 0.4281
- Surface SNAP-GIPR expression ([3]; replicate 12): 0.4464
- Surface SNAP-GIPR expression ([3]; replicate 13): 0.04565
- Surface SNAP-GIPR expression ([3]; replicate 14): 0.1907
- Surface SNAP-GIPR expression ([3]; replicate 15): 0.4569
- Surface SNAP-GIPR expression ([3]; replicate 16): 0.5164
- Surface SNAP-GIPR expression ([3]; replicate 17): 0.5151
- Surface SNAP-GIPR expression ([3]; replicate 18): 0.4251
- Surface SNAP-GIPR expression ([3]; replicate 19): 0.384
- Surface SNAP-GIPR expression ([3]; replicate 20): 0.5015
- Surface SNAP-GIPR expression ([3]; replicate 21): 0.5316
- Surface SNAP-GIPR expression ([3]; replicate 22): 0.4149
- Surface SNAP-GIPR expression ([3]; replicate 23): 0.4406
- Surface SNAP-GIPR expression ([3]; replicate 24): 0.4166
- Surface SNAP-GIPR expression ([3]; replicate 25): 0.3346
- Surface SNAP-GIPR expression ([3]; replicate 26): 0.3683
- Surface SNAP-GIPR expression ([3]; replicate 27): 0.2116
- Surface SNAP-GIPR expression ([3]; replicate 28): 0.1755
- Surface SNAP-GIPR expression ([3]; replicate 29): 0.2709
- Surface SNAP-GIPR expression ([3]; replicate 30): 0.3405
- Surface SNAP-GIPR expression ([3]; replicate 31): 0.1773
- Surface SNAP-GIPR expression ([3]; replicate 32): 0.3176
- Surface SNAP-GIPR expression ([3]; replicate 33): 0.2814
- Surface SNAP-GIPR expression ([3]; replicate 34): 0.3758
- Surface SNAP-GIPR expression ([3]; replicate 35): 0.422
- Surface SNAP-GIPR expression ([3]; replicate 36): 0.4366
- Surface SNAP-GIPR expression ([3]; replicate 37): 0.2975
- Surface SNAP-GIPR expression ([3]; replicate 38): 0.1954
- Surface SNAP-GIPR expression ([3]; replicate 39): 0.2342
- Surface SNAP-GIPR expression ([3]; replicate 40): 0.2038
- Surface SNAP-GIPR expression ([3]; replicate 41): 0.2137
- Insulin secretion, ratio G11 + GIP / G11 ([4]; replicate 1): 1.571
- Insulin secretion, ratio G11 + GIP / G11 ([4]; replicate 2): 6.006
- Insulin secretion, ratio G11 + GIP / G11 ([4]; replicate 3): 2.0139
- Insulin secretion, ratio G11 + GIP / G11 ([4]; replicate 4): 1.2264
- Insulin secretion, ratio G11 + GIP / G11 ([4]; replicate 5): 0.7288
- Surface expression [5]: 0.19

B2: E288G (protein)
chain: RAETGSKGQTAGELYQRWERYRRECQETLAAAEPPSGLACNGSFDMYVCWDYAAPNATARASCPWYLPWHHHVAAGFVLRQCGSDGQWGLWRDHTQCENPEKNEAFLDQRLILERLQVMYTVGYSLSLATLLLALLILSLFRRLHCTRNYIHINLFTSFMLRAAAILSRDRLLPRPGPYLGDQALALWNQALAACRTAQIVTQYCVGANYTWLLVEGVYLHSLLVLVGGSEEGHFRYYLLLGWGAPALFVIPWVIVRYLYENTQCWGRNEVKAIWWIIRTPILMTILINFLIFIRILGILLSKLRTRQMRCRDYRLRLARSTLTLVPLLGVHEVVFAPVTEEQARGALRFAKLGFEIFLSSFQGFLVSVLYCFINKEVQSEIRRGWHHCRLRRSLGEEQRQLPERAFRALPSGSGPGEVPTSRGLSSGTLPGPGNEASRELESYC
- INS-1 cAMP (100 nM) [1]: 0.3027
- Glucagon secretion, ratio G0.5 + GIP / G0.5 ([2]; replicate 1): 2.014
- Glucagon secretion, ratio G0.5 + GIP / G0.5 ([2]; replicate 2): 1.482
- Glucagon secretion, ratio G0.5 + GIP / G0.5 ([2]; replicate 3): 1.8204
- Glucagon secretion, ratio G0.5 + GIP / G0.5 ([2]; replicate 4): 1.525
- AD293 Surface [3, 6]: 0.1748
- AD293 Surface ([3]; paired with cAMP 100 pM): 0.1748
- Surface SNAP-GIPR expression ([3]; replicate 1): 0.1869
- Surface SNAP-GIPR expression ([3]; replicate 2): 0.267
- Surface SNAP-GIPR expression ([3]; replicate 3): 0.08361
- Surface SNAP-GIPR expression ([3]; replicate 4): 0.1519
- Surface SNAP-GIPR expression ([3]; replicate 5): 0.1987
- Surface SNAP-GIPR expression ([3]; replicate 6): 0.07439
- Surface SNAP-GIPR expression ([3]; replicate 7): 0.7465
- Surface SNAP-GIPR expression ([3]; replicate 8): 0.3261
- Surface SNAP-GIPR expression ([3]; replicate 9): 0.1689
- Surface SNAP-GIPR expression ([3]; replicate 10): 0.2273
- Surface SNAP-GIPR expression ([3]; replicate 11): 0.2845
- Surface SNAP-GIPR expression ([3]; replicate 12): 0.2606
- Surface SNAP-GIPR expression ([3]; replicate 13): 0.07673
- Surface SNAP-GIPR expression ([3]; replicate 14): 0.0817
- Surface SNAP-GIPR expression ([3]; replicate 15): 0.1221
- Surface SNAP-GIPR expression ([3]; replicate 16): 0.1487
- Surface SNAP-GIPR expression ([3]; replicate 17): 0.2042
- Surface SNAP-GIPR expression ([3]; replicate 18): 0.1937
- Surface SNAP-GIPR expression ([3]; replicate 19): 0.1495
- Surface SNAP-GIPR expression ([3]; replicate 20): 0.1825
- Surface SNAP-GIPR expression ([3]; replicate 21): 0.2069
- Surface SNAP-GIPR expression ([3]; replicate 22): 0.1788
- Surface SNAP-GIPR expression ([3]; replicate 23): 0.167
- Surface SNAP-GIPR expression ([3]; replicate 24): 0.1096
- Surface SNAP-GIPR expression ([3]; replicate 25): 0.2053
- Surface SNAP-GIPR expression ([3]; replicate 26): 0.1578
- Surface SNAP-GIPR expression ([3]; replicate 27): 0.0991
- Surface SNAP-GIPR expression ([3]; replicate 28): 0.1213
- Surface SNAP-GIPR expression ([3]; replicate 29): 0.1325
- Surface SNAP-GIPR expression ([3]; replicate 30): 0.1696
- Surface SNAP-GIPR expression ([3]; replicate 31): 0.159
- Surface SNAP-GIPR expression ([3]; replicate 32): 0.181
- Surface SNAP-GIPR expression ([3]; replicate 33): 0.1299
- Surface SNAP-GIPR expression ([3]; replicate 34): 0.1533
- Surface SNAP-GIPR expression ([3]; replicate 35): 0.1527
- Surface SNAP-GIPR expression ([3]; replicate 36): 0.05767
- Surface SNAP-GIPR expression ([3]; replicate 37): 0.09894
- Surface SNAP-GIPR expression ([3]; replicate 38): 0.1179
- Surface SNAP-GIPR expression ([3]; replicate 39): 0.124
- Surface SNAP-GIPR expression ([3]; replicate 40): 0.1489
- Surface SNAP-GIPR expression ([3]; replicate 41): 0.1584
- Insulin secretion, ratio G11 + GIP / G11 ([4]; replicate 1): 0.8131
- Insulin secretion, ratio G11 + GIP / G11 ([4]; replicate 2): 1.885
- Insulin secretion, ratio G11 + GIP / G11 ([4]; replicate 3): 1.6101
- Insulin secretion, ratio G11 + GIP / G11 ([4]; replicate 4): 1.127
- Insulin secretion, ratio G11 + GIP / G11 ([4]; replicate 5): 2.303
- Surface expression [5]: 0.2232
